Data from patent publication US20100204105A1 (ZEALAND PHARMA A S, published 2010).

Key:
[1] = molecular target: human glucagon receptor (Glucagon-R) (human, UniProt P47871 26-477); experiment: cell-based or functional assay
[2] = molecular target: human glucagon-like peptide 1 receptor (GLP-1R) (human, UniProt P43220 24-463); experiment: cell-based or functional assay

Chain of human glucagon receptor (Glucagon-R) (P47871 26-477): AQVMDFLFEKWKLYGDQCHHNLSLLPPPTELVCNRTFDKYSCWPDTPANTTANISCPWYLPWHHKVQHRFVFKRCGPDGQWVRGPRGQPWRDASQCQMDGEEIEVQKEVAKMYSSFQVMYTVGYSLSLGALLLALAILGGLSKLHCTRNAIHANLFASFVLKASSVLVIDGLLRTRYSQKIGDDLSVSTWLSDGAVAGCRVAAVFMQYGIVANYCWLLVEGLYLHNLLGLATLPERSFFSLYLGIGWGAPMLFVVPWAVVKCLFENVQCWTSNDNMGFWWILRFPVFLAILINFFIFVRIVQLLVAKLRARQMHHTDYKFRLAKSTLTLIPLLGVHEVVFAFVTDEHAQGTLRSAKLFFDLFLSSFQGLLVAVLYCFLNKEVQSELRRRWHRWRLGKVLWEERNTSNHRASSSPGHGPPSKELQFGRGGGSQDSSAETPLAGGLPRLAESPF

EC50, cAMP content in HEK293 cells expressing hGlucagon-R (FlashPlate cAMP kit) [1]: 7.3 µM | EC50, cAMP content in HEK293 cells expressing hGlucagon-R (FlashPlate cAMP kit), re-test [1]: 0.00049 µM | EC50, cAMP content in HEK293 cells expressing hGLP-1-R (FlashPlate cAMP kit) [2]: 9.3 µM
Binder: H-HSQGTFTSDYSKYLDRARADDFVAWLKST-NH2 [Compound 3 (H-HSQGTFTSDYSKYLDRARADDFVAWLKST-NH2)]
